Target: CHO-hCCR8 (human) (UniProt P51685)
Experiment: FACS binding, CHO-K1 cells overexpressing human CCR8

UniProt P51685, sequence (P51685 whole entry): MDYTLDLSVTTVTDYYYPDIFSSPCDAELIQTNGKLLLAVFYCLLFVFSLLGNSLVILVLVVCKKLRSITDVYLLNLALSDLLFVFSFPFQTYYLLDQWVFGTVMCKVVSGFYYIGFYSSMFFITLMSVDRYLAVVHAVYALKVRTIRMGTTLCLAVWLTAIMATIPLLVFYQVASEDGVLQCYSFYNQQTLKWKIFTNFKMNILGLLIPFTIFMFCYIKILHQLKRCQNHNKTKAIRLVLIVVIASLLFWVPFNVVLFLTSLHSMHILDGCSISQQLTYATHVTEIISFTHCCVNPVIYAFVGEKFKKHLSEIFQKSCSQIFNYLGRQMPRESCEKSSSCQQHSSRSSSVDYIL

## GS-1811
  EC50: 0.658 nM

Reference: US20240132604A1
